Measured values: patent US11214624 (PRODA BIOTECH, dated 2022)

T1: kinesin (endogenous, in SW480 cell extracts) (UniProt P33176 2-963)
T1 construct: also called heavy chain of kinesin-1
T1 sequence (looked up): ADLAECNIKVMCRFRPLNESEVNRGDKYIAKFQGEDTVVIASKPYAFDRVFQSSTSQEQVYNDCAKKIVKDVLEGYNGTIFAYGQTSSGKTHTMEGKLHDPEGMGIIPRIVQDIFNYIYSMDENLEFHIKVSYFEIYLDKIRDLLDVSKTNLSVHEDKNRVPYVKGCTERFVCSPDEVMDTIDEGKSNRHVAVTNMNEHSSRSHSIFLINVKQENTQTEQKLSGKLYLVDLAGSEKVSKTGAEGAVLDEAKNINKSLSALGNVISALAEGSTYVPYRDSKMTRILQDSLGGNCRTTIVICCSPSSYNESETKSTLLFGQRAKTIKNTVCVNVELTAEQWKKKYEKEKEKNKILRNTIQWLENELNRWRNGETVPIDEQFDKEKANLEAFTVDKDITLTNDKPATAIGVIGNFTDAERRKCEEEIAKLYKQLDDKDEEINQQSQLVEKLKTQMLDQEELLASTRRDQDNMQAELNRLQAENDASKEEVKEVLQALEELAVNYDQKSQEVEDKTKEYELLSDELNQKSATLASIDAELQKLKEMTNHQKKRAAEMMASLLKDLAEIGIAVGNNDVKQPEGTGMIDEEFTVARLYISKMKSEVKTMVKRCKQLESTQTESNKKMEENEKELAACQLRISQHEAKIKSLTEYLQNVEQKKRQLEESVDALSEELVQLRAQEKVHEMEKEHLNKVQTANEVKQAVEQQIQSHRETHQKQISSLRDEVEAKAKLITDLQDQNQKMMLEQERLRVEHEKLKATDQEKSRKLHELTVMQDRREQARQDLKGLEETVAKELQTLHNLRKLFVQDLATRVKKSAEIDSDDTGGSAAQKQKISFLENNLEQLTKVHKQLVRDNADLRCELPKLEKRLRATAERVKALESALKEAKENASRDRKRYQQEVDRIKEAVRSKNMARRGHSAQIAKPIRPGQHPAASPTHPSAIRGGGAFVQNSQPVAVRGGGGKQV

B1: p68 RNA helicase (endogenous, in SW480 cell extracts) (enzyme)
chain: MSGYSSDRDRGRDRGFGAPRFGGSRAGPLSGKKFGNPGEKLVKKKWNLDELPKFEKNFYQEHPDLARRTAQEVETYRRSKEITVRGHNCPKPVLNFYEANFPANVMDVIARQNFTEPTAIQAQGWPVALSGLDMVGVAQTGSGKTLSYLLPAIVHINHQPFLERGDGPICLVLAPTRELAQQVQQVAAEYCRACRLKSTCIYGGAPKGPQIRDLERGVEICIATPGRLIDFLECGKTNLRRTTYLVLDEADRMLDMGFEPQIRKIVDQIRPDRQTLMWSATWPKEVRQLAEDFLKDYIHINIGALELSANHNILQIVDVCHDVEKDEKLIRLMEEIMSEKENKTIVFVETKRRCDELTRKMRRDGWPAMGIHGDKSQQERDWVLNEFKHGKAPILIATDVASRGLDVEDVKFVINYDYPNSSEDYIHRIGRTARSTKTGTAYTFFTPNNIKQVSDLISVLREANQAINPKLLQLVEDRGSGRSRGRGGMKDDRRDRYSAGKRGGFNTFRDRENYDRGYSSLLKRDFGAKTQNGVYSAANYTNGSFGSNFVSAGIQTSFRTGNPTGTYQNGYDSTQQYGSNVPNMHNGMNQQAYAYPATAAAPMIGYPMPTGYSQ
notes: Endogenous protein in lysates of SW480 cells; also called Human p68
B2: HA-tagged wild-type p68 (HA-p68), immunopurified from SW480 cell lysates (enzyme)
chain: B1 chain
notes: One construct, purified from SW480 cells either with or without scratch-wound treatment; also called HA-p68 WT; WT; not shown: hemagglutinin (HA) tag from the pHM6 vector

What was measured:
[1] = biological target: T2, dynein (endogenous, in SW480 cell extracts) (UniProt O14576 2-645); assay: co-immunoprecipitation in extracts of scratch-wounded SW480 cells
T2 construct: Multi-subunit motor; also called Dynein intermediate 1

[2] = biological target: T1, kinesin (endogenous, in SW480 cell …); assay: as above

T2 sequence (O14576 2-645): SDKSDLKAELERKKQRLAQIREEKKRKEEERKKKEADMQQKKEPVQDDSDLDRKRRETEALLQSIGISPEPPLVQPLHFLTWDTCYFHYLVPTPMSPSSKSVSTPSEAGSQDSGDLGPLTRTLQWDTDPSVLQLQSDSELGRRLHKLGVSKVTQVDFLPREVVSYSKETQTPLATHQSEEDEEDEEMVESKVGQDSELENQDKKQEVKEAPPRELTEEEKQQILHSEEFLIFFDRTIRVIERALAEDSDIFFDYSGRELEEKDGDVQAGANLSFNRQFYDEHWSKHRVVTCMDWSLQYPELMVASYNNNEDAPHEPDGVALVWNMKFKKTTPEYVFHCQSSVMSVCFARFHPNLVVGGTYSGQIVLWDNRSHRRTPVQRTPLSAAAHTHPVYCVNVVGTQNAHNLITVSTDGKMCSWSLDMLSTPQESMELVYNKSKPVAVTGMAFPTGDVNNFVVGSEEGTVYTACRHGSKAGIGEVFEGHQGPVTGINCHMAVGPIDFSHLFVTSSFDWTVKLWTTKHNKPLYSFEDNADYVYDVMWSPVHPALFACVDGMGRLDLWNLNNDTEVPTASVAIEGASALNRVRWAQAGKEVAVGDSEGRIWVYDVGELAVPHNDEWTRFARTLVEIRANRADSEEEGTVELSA

Row | Binder | binding result [1] | binding result [2]
1 | B1 | no binding | no binding
2 | B2 | no binding | no binding
